Assay results published in patent publication US20250115669A1, “FGFR1/KLB Targeting Agonistic Antigen-Binding Proteins and Conjugates Thereof with GLP-1R Agonistic Peptides” (SANOFI, priority 2020, published 2025).
Where two headings read alike, the source gives them in different places. Marks after values point to notes of the source that are not given here.

Assays:
[1] = biological target: cynomolgus monkey beta-Klotho; experiment: SPR binding affinity and kinetics to cynomolgus monkey beta-Klotho (Biacore 8K, anti-human Fc capture); set-up: species or system Cynomolgus monkey (Macaca fascicularis); details: 1:1 binding model, read-out: KD monkey KLB
Experimental: (§1) Binding affinity and kinetics were measured on a Biacore 8K instrument (GE Healthcare). For the affinity capture of the diluted mAb sample, an anti-human Fc antibody (human antibody capture kit, GE Healthcare) was immobilized on all eight channels of a series S CM5 sensor chip (GE Healthcare) to approximately 10.000 RU. The anti-beta-Klotho antibodies were diluted into HBS-EP+ assay buffer (GE Healthcare) to 0.04 μg/mL. The antibodies were injected in the sample compartment, whereas the reference compartment was used without captured antibody. […] For the antigen inject the flow rate was adjusted to 60 μL/min with an association time of 180 sec and a dissociation time of 1800 sec. The maximum binding signal of beta-Klotho was in the range of 30 RU. At the end of each cycle an inject of regeneration solution, supplied with human antibody capture kit (GE Healthcare), supplemented with 10% non-specific binding reducer (GE Healthcare), for 1 min at 30 μL/min to remove antibody and antigen was performed. Binding kinetics data were evaluated with a 1:1 binding model using the Biacore 8K Evaluation Software version 1.1.1.7442 (GE Healthcare).
(§2) For interaction analysis with human beta-klotho, mAbs were captured via an anti-human Fc antibody immobilized on a series S CM5 sensor chip (human antibody capture kit, GE Healthcare). […] Binding kinetics data were evaluated with a 1:1 binding model using the Biacore 8K Evaluation Software version 1.1.1.7442 (GE Healthcare). For interaction analysis with Cynomolgus monkey beta-klotho, mAbs were captured via an anti-human Fc antibody immobilized on a series S CM5 sensor chip (human antibody capture kit, GE Healthcare). […] Binding kinetics data were evaluated with a 1:1 binding model using the Biacore 8K Evaluation Software version 1.1.1.7442 (GE Healthcare). Exemplary sensorgrams for the interaction are shown in FIG. 7 (human KLB) and 8 (monkey KLB), as well as in Table G.

[2] = Capillary isoelectric focusing (cIEF); type: physicochemical
Experimental: Charge heterogeneity of the antibody samples was determined by capillary isoelectric focusing (cIEF) using a Maurice C device (Protein Simple). The samples were prepared by the cIEF protocol given by the manufacturer with an ampholyte mix 3-10 (Protein Simple) and peptide pl markers of 5.85 and 9.0 (Protein Simple). cIEF runs were analyzed using Compass Software v2.1.0 (Protein Simple).

[3] = biological target: T1, human beta-Klotho (Homo sapiens, UniProt Q86Z14); experiment: SPR binding affinity and kinetics to human beta-Klotho (Biacore 8K, anti-human Fc capture)
T1 sequence (Q86Z14 1-1044): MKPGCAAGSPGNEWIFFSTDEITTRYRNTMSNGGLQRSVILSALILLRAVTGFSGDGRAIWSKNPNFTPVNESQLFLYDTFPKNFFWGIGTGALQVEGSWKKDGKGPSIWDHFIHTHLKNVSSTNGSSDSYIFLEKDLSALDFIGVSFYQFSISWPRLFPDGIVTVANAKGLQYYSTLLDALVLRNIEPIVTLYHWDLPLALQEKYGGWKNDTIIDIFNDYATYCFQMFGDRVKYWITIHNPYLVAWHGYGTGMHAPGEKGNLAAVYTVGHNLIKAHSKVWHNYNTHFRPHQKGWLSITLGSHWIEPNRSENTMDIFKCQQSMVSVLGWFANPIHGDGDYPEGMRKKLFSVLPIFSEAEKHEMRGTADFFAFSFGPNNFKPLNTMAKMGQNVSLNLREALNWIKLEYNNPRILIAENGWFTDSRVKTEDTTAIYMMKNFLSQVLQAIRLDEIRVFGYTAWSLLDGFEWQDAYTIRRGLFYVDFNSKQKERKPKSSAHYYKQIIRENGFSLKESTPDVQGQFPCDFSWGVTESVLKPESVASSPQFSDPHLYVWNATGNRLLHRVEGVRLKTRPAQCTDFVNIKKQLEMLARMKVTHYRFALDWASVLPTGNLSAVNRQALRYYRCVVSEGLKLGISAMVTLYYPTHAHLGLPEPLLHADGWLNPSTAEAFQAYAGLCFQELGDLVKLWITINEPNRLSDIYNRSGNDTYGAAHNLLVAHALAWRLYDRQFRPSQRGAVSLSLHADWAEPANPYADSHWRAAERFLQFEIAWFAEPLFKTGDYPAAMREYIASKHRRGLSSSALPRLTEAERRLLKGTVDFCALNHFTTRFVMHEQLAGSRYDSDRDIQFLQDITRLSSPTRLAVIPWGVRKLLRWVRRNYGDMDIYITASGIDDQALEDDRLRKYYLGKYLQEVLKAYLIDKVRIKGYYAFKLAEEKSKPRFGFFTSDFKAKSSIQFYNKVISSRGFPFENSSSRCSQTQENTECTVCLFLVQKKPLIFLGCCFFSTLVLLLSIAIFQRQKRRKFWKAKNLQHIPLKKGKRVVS
Experimental: as §1, §2

[4] = In vivo PK in transgenic humanized FcRn mice (Tg32); details: 0.3 mg/kg single IV, plasma; for t½: noncompartmental analysis
Experimental: In vivo PK studies were conducted in transgenic humanized FcRn mice (Tg32). For these studies, no GLP compliance was claimed.

[5] = Intact mass spectrometry (IMS); type: physicochemical; details: for intact mass Identity confirmed / intact mass Peak intensity post stress: 21 days
Experimental: Protein integrity was analyzed by LC-MS. […] Reversed phase (RP) chromatography was done using a PLRP-S 1000A 5 μm, 50×2.1 mm (Agilent) with a guard column PLRP-S 300A 5 μm, 3×5 mm (Agilent) at 200 μL/min and 80° C. column temperature. Eluents were buffer A containing LC water and 0.1% formic acid as well as buffer B containing 90% acetonitrile, 10% LC water and 0.1% formic acid. 1 μg of protein was injected onto the column and eluted using linear gradient from 0 to 17 minutes with increasing acetonitrile concentration. Data was analyzed using MassHunter Bioconfirm B.06 (Agilent). Molecular masses were calculated based on the amino acid sequences of the proteins using GPMAW software version 10 (Lighthouse data).

[6] = SPR, 1:1 binding model, read-out: KD human KLB

Ab0335: IgG4 PE; 16H7 VL (N25S, D49S, D50A, D91E, N93E); 16H7 VH (M34V, I83T, D109E); HC SEQ ID NO: 39, LC SEQ ID NO: 46
Kd [1]: 2.95 nM | Charge homogeneity cIEF % main peak [2]: 71.4% | Charge homogeneity cIEF Number of peaks [2]: 4 | Charge homogeneity cIEF pI [2]: 7.1 | cIEF % Main peak ([2]; pH 5, 40° C., d 21): 59% | cIEF Number of peaks ([2]; pH 5, 40° C., d 21): 4 | cIEF % Main peak ([2]; pH 5, d 0): 70% | cIEF Number of peaks ([2]; pH 5, d 0): 5 | cIEF % Main peak ([2]; pH 6, 40° C., d 21): 59% | cIEF Number of peaks ([2]; pH 6, 40° C., d 21): 4 | cIEF % Main peak ([2]; pH 6, d 0): 71% | cIEF Number of peaks ([2]; pH 6, d 0): 4 | cIEF % Main peak ([2]; pH 8, 40° C., d 21): 12% | cIEF Number of peaks ([2]; pH 8, 40° C., d 21): 5 | cIEF % Main peak ([2]; pH 8, d 0): 68% | cIEF Number of peaks ([2]; pH 8, d 0): 5 | affinity to human KLB compared to 16H7 [3]: comparable affinity | Kd [3, 6]: 0.158 nM | Kd ([3]; read-out: Affinity SPR KD): 0.16 nM | t½ calculated with compartment model ([4]; compartment model): 300* h | Identity, correct pairing, intact mass, Identity confirmed [5]: Yes | intact mass Identity confirmed ([5]; pH 5, 40° C.): Yes | intact mass Peak intensity post stress ([5]; pH 5, 40° C.): 84% | intact mass Identity confirmed ([5]; pH 6, 40° C.): Yes | intact mass Peak intensity post stress ([5]; pH 6, 40° C.): 85% | intact mass Identity confirmed ([5]; pH 8, 40° C.): Yes | intact mass Peak intensity post stress ([5]; pH 8, 40° C.): 53%

Ab0351: IgG4 PE; 16H7 VL (N25S, D49E, D50E, D91E, N93E); 16H7 VH (M34V, I83T, D109E); HC SEQ ID NO: 40, LC SEQ ID NO: 47
Charge homogeneity cIEF % main peak [2]: 72.6% | Charge homogeneity cIEF Number of peaks [2]: 4 | Charge homogeneity cIEF pI [2]: 6.7 | cIEF % Main peak ([2]; pH 5, 40° C., d 21): 59% | cIEF Number of peaks ([2]; pH 5, 40° C., d 21): 5 | cIEF % Main peak ([2]; pH 5, d 0): 72% | cIEF Number of peaks ([2]; pH 5, d 0): 4 | cIEF % Main peak ([2]; pH 6, 40° C., d 21): 58% | cIEF Number of peaks ([2]; pH 6, 40° C., d 21): 4 | cIEF % Main peak ([2]; pH 6, d 0): 73% | cIEF Number of peaks ([2]; pH 6, d 0): 4 | cIEF % Main peak ([2]; pH 8, 40° C., d 21): 15% | cIEF Number of peaks ([2]; pH 8, 40° C., d 21): 5 | cIEF % Main peak ([2]; pH 8, d 0): 71% | cIEF Number of peaks ([2]; pH 8, d 0): 4 | affinity to human KLB compared to 16H7 [3]: comparable affinity | Kd [3, 6]: 0.248 nM | Kd ([3]; read-out: Affinity SPR KD): 0.25 nM | t½ [4]: 14.2 days | Identity, correct pairing, intact mass, Identity confirmed [5]: Yes | intact mass Identity confirmed ([5]; pH 5, 40° C.): Yes | intact mass Peak intensity post stress ([5]; pH 5, 40° C.): 90% | intact mass Identity confirmed ([5]; pH 6, 40° C.): Yes | intact mass Peak intensity post stress ([5]; pH 6, 40° C.): 96% | intact mass Identity confirmed ([5]; pH 8, 40° C.): Yes | intact mass Peak intensity post stress ([5]; pH 8, 40° C.): 77%

16H7: anti FGFR1c/KLB monoclonal antibody of WO 2011/071783, IgG2 backbone; HC SEQ ID NO: 1, LC SEQ ID NO: 2 [Ab 16H7]
Kd [1]: 0.428 nM | t½ [4]: 13 days
